Where “and” joins values, the source holds several entries; their conditions need not be identical. Equal values may be shown once.
What was measured:
full-length gephyrin rC4 [1] = target: full-length gephyrin rC4
[2] = target: gephyrin E-domain (GephE); test: ITC
full-length gephyrin rC4 [3] = test: ITC
full-length gephyrin rC4 [4] = test: cross-linking; EDC cross-linking of purified full-length gephyrin and βL-wt, 6% SDS-PAGE with Coomassie staining, trimer band extracted, tryptic digestion and LC-MS/MS peptide mass fingerprinting
[5] = target: gephyrin E-domain (GephE); test: not stated; data not shown; physiologic salt concentrations and pH 7.4-8.0

Substance | Deff of extrasynaptic trajectories above the threshold of 0.02 µm^2/s (sptPALM, rat spinal cord neurons), Q1/Q2/Q3; value: the median Q2 (full-length gephyrin rC4 [1]) [µm^2 · s^−1] | Deff of synaptic trajectories above the threshold of 0.02 µm^2/s (sptPALM, rat spinal cord neurons), Q1/Q2/Q3; value: the median Q2 (full-length gephyrin rC4 [1]) [µm^2 · s^−1] | explored area of extrasynaptic trajectories above the threshold of 0.02 µm^2/s (sptPALM, rat spinal cord neurons), Q1/Q2/Q3; value: the median Q2 (full-length gephyrin rC4 [1]) [µm^2] | explored area of synaptic trajectories above the threshold of 0.02 µm^2/s (sptPALM, rat spinal cord neurons), Q1/Q2/Q3; value: the median Q2 (full-length gephyrin rC4 [1]) [µm^2] | dH (full-length gephyrin rC4 [3]) [kcal/mol] | further results
GlyRβ-HI: mEos4b-tagged full-length human GlyRβ with deletion ΔV378-L393 (from UniProt P48167-1 23-497) (receptor) | 0.05 | 0.04 | 0.00096 | 0.00077 |  | 
GlyR β-loop wild type, residues 378-426 of the GlyRβ subunit (from UniProt P20781 400-448) (peptide) |  |  |  |  |  | dH [2]: -16.1 kcal/mol
GlyR β-loop βL-HI, residues 394-426 (from UniProt P20781 416-448) (peptide) |  |  |  |  | -21.5 | 
core βL peptide, residues 394-413 (from UniProt P20781 416-435) |  |  |  |  | -11 | 
full-length gephyrin rC4 (natural protein) |  |  |  |  |  | stoichiometry N (full-length gephyrin rC4 [4]): 2 and 3
gephyrin E-domain (GephE) (domain or fragment) |  |  |  |  |  | stoichiometry N [5]: 2
GlyRβ-geph^-: mEos4b-tagged full-length human GlyRβ with F398A/I400A (from UniProt P48167-1 23-497) (receptor) | 0.11 | 0.09 | 0.00183 | 0.00151 |  | 
GlyRβ-D407P/F408G: mEos4b-tagged full-length human GlyRβ with D407P and F408G (from UniProt P48167-1 23-497) (receptor) | 0.09 | 0.04 | 0.00152 | 0.00086 |  | 
GlyR β-loop βL-LO, residues 378-413 (from UniProt P20781 400-435) (peptide) |  |  |  |  | -11.8 | 
mEos4b-tagged full-length human GlyRβ subunit, wild type (from UniProt P48167-1 23-497) (receptor) | 0.05 | 0.04 | 0.00091 | 0.00073 |  | 

— PMC5818551
